Laboratory results: the Human Domainome abundance scans (Beltran et al. 2025)
± gives the uncertainty stated by the source.

B1: Glucocorticoid receptor, residues 419 to 494; numbered along this chain, P04150 (parent)
chain: KLCLVCSDEASGCHYGVLTCGSCKVFFKRAVEGQHNYLCAGRNDCIIDKIRRKNCPACRYRKCLQAGMNLEARKTK

Variants of: B1
Assay: abundance fitness (aPCA) (normalised: wild type 0, dead -1); higher = more abundant; growth selection in yeast, the domain comes from the species named
Details: Homo sapiens

Row | Variant | abundance fitness
1 | KLCLVESDEASGCHYGVLTCGSCKVFFKRAVEGQHNYLCAGRNDCIIDKIRRKNCPACRYRKCLQAGMNLEARKTK [C6E] | -0.941 ± 0.14
2 | KLCLVCSDEASGCHYGVLTCGSCKVFFKRAVEGQHNYLCPGRNDCIIDKIRRKNCPACRYRKCLQAGMNLEARKTK [A40P] | -0.066 ± 0.053
3 | KLCLVCSDEASGCHYGVLTCGSCKVFFKRAVEGQHNYLCAGRNDCIIDKIRRKNCPACRYRKCLQAGMNLEARKFK [T75F] | 0.064 ± 0.064
4 | KLCLVCSDEASGCHYGVLTCGSCKVFFKRAVEGQHNYLCAGRNDCIIDKIRRKNCPACRYRKCLQAGMNLEARKPK [T75P] | -0.005 ± 0.048
5 | KLCLVCSDEASGCHYGVLTCGSCKVFFKRAVEGQHNYLCAGRNDCIIDKIRRKNCPACRYRKCLLAGMNLEARKTK [Q65L] | -0.035 ± 0.035
6 | KLCLVCSDEASGCHYGVLTCGSCKVFFKRAVEGQHNYLCAGRNDCIIDKIRRKNCPACRYRKCLMAGMNLEARKTK [Q65M] | -0.057 ± 0.043
7 | KLCLVCSDEASGCHYGVLTCGSCKVFFKRAVEGQHNYLCAGRNDCIIDKIRRKNCPACRGRKCLQAGMNLEARKTK [Y60G] | -0.809 ± 0.086
8 | KLCLVCSDEASGCHYGVLTCGSCKVFFKRAVEGQHNPLCAGRNDCIIDKIRRKNCPACRYRKCLQAGMNLEARKTK [Y37P] | -0.104 ± 0.054
9 | KLCLVCSDEASGCHYGVLTCGSCKVFFKRAYEGQHNYLCAGRNDCIIDKIRRKNCPACRYRKCLQAGMNLEARKTK [V31Y] | -0.034 ± 0.081
10 | KLCLVCSDEASGCHYGVLTCGSCKVFFKRAVEGQHNYLCAGRNDCIIDKIRRKNCPACRYRKCLQAGMNLEARKTH [K76H] | -0.096 ± 0.27
11 | KLCLVCSDEASGCHYGVLTCGSCKVFFKRAVEGQHNYLCAGRNDCIIDKIRRKNCPACRYRKCLQAGMNLEARKTF [K76F] | 0.006 ± 0.11
12 | KLCLVCSDEASGCHYGVLTCGSCKVFFKRAVEGQHNYLCAGRNDCIIDKYRRKNCPACRYRKCLQAGMNLEARKTK [I50Y] | -0.143 ± 0.21
13 | KLCLVCSDEASGCHYTVLTCGSCKVFFKRAVEGQHNYLCAGRNDCIIDKIRRKNCPACRYRKCLQAGMNLEARKTK [G16T] | -0.264 ± 0.049
14 | KLCLVCSDEASGCHYDVLTCGSCKVFFKRAVEGQHNYLCAGRNDCIIDKIRRKNCPACRYRKCLQAGMNLEARKTK [G16D] | -0.078 ± 0.064
15 | KLCLVCSDEASGCPYGVLTCGSCKVFFKRAVEGQHNYLCAGRNDCIIDKIRRKNCPACRYRKCLQAGMNLEARKTK [H14P] | -0.24 ± 0.056
16 | KLCLVCSDEASGCKYGVLTCGSCKVFFKRAVEGQHNYLCAGRNDCIIDKIRRKNCPACRYRKCLQAGMNLEARKTK [H14K] | -0.096 ± 0.049
17 | KLCLVCSDELSGCHYGVLTCGSCKVFFKRAVEGQHNYLCAGRNDCIIDKIRRKNCPACRYRKCLQAGMNLEARKTK [A10L] | -0.066 ± 0.036
18 | KLCLVCSDEASGCHYGVLTCGSCKVFFKFAVEGQHNYLCAGRNDCIIDKIRRKNCPACRYRKCLQAGMNLEARKTK [R29F] | -0.152 ± 0.076

Row | Variant | abundance fitness
19 | KLCLVCSDEASGCHYGVLTCGSCKVFFKAAVEGQHNYLCAGRNDCIIDKIRRKNCPACRYRKCLQAGMNLEARKTK [R29A] | -0.024 ± 0.042
20 | KLCLKCSDEASGCHYGVLTCGSCKVFFKRAVEGQHNYLCAGRNDCIIDKIRRKNCPACRYRKCLQAGMNLEARKTK [V5K] | -1.15 ± 0.32
21 | KLCLWCSDEASGCHYGVLTCGSCKVFFKRAVEGQHNYLCAGRNDCIIDKIRRKNCPACRYRKCLQAGMNLEARKTK [V5W] | -0.952 ± 0.14
22 | KLCLVCSDEASGCHYGVLTCGSCKVFFKRAVEGQHNYLCAGRNDHIIDKIRRKNCPACRYRKCLQAGMNLEARKTK [C45H] | -0.168 ± 0.09
23 | KLCLVCSDEASGCHYGVLTCGSCKVFFKRAVEGQHNYLYAGRNDCIIDKIRRKNCPACRYRKCLQAGMNLEARKTK [C39Y] | -0.951 ± 0.34
24 | KLCLVCSDEASGCHYGVLTCGSCKVFFKRAVEGQHNYLMAGRNDCIIDKIRRKNCPACRYRKCLQAGMNLEARKTK [C39M] | -0.998 ± 0.18
25 | KLCLVCSDEASGCHYGVLTCGSCKVFFKRAVEGQHNYLCAGRNDCIIDKIRRKNCPACRYRKTLQAGMNLEARKTK [C63T] | -0.909 ± 0.13
26 | KLCLVCSDFASGCHYGVLTCGSCKVFFKRAVEGQHNYLCAGRNDCIIDKIRRKNCPACRYRKCLQAGMNLEARKTK [E9F] | -0.115 ± 0.071
27 | KLCLVCSDVASGCHYGVLTCGSCKVFFKRAVEGQHNYLCAGRNDCIIDKIRRKNCPACRYRKCLQAGMNLEARKTK [E9V] | 0.031 ± 0.035
28 | KLCLVCSDEASGCHYGVLTCGSCKVFFKRAVEGQHNYLCAGRNDCIIDKIRRKNCPACRYRKCLQAGMNIEARKTK [L70I] | -0.018 ± 0.083
29 | KLCLVCSDEASGCHYGVLTCGSCKVFFKRAVEGQHNYLCAGRNDCRIDKIRRKNCPACRYRKCLQAGMNLEARKTK [I46R] | -0.012 ± 0.027
30 | KLCLVCSDEASGCHYGVLTCGSCKVFFKRAVEGQHNYLCAGRNDCIIDKIRRFNCPACRYRKCLQAGMNLEARKTK [K53F] | -0.033 ± 0.059
31 | KLCLVCSDEASGCHYGVLTCGSCKVFFKRAVEGQHNYLCAGRNDCIIDKIRRKNCPACRYRKCLQYGMNLEARKTK [A66Y] | -0.014 ± 0.065
32 | KLCLVCSDEASGCHYGVLTCGSCKVFFKRAVEGQHNYLCAGRNDCIIDKIRRKNCPACRYRKCLQDGMNLEARKTK [A66D] | -0.33 ± 0.082
33 | KLCLVCSDEASGCHYGVLTCGSCKVFFKRAVEMQHNYLCAGRNDCIIDKIRRKNCPACRYRKCLQAGMNLEARKTK [G33M] | -0.052 ± 0.049
34 | KLCLVCSDEASGCHYGVLTCGSCKVQFKRAVEGQHNYLCAGRNDCIIDKIRRKNCPACRYRKCLQAGMNLEARKTK [F26Q] | -0.858 ± 0.17
35 | KLWLVCSDEASGCHYGVLTCGSCKVFFKRAVEGQHNYLCAGRNDCIIDKIRRKNCPACRYRKCLQAGMNLEARKTK [C3W] | -0.879 ± 0.14
36 | KLCLVCSDEASGCHYGVLSCGSCKVFFKRAVEGQHNYLCAGRNDCIIDKIRRKNCPACRYRKCLQAGMNLEARKTK [T19S] | 0.034 ± 0.039
